Reference: patent publication US20150266925A1 (COMPLIX, published 2015)

Legend:
[1] = biological target: T1, human IL-23 (human, UniProt Q9NPF7 20-189; P29460 23-328); assay: phage-coated ELISA, clone displayed on phage
T1 construct: Bought recombinant heterodimeric cytokine (eBioscience 34-8239-85 for panning; R&D Systems for the splenocyte assay); also called hIL-23; hIL23
T1 sequence (looked up) 1: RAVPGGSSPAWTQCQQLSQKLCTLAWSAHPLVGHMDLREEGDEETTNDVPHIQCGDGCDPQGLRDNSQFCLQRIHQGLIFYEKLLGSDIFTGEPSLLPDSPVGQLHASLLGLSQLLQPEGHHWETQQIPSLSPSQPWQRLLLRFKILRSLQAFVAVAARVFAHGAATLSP
T1 sequence (looked up) 2: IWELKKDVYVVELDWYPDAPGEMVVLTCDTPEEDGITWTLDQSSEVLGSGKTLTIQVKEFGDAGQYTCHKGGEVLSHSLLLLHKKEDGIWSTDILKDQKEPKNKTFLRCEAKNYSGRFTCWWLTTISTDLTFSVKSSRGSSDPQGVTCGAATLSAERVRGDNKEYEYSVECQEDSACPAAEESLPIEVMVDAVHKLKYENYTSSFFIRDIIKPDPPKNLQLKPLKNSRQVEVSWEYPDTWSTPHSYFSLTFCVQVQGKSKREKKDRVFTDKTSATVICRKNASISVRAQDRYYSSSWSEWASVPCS

[2] = biological target: T1, human IL-23; assay: cell-based or functional assay
[3] = biological target: T1, human IL-23; assay: equilibrium ELISA, soluble polypeptide
[4] = biological target: T1, human IL-23; assay: kinetic ELISA, soluble polypeptide
[5] = biological target: T1, human IL-23; assay: equilibrium ELISA, soluble polypeptide; equilibrium ELISA
[6] = biological target: T1, human IL-23; assay: kinetic ELISA, soluble polypeptide; kinetic ELISA
[7] = biological target: T1, human IL-23; assay: ELISA
[8] = biological target: T1, human IL-23; assay: standard equilibrium ELISA
[9] = biological target: T1, human IL-23; assay: cell-based or functional assay; remark: listed apart in the source

| Binder | Kd [1] | functional KD (DB fKD), DB cell assay: Stat3 phosphorylation induced by human IL-23; n data = 2 [2] | Kd [3] | Kd [4] | koff [4] | kon [4] | functional KD (Spleno fKD), mouse splenocyte assay: IL-17 production induced by human IL-23; n data = 1 [2] | functional KD (Spleno fKD), mouse splenocyte assay: IL-17 production induced by human IL-23; n data = 3 [2] | functional KD (Spleno fKD), mouse splenocyte assay: IL-17 production induced by human IL-23; n data = 5 [2] | Kd [5] | Kd [6] | Kd [7] | factor better than the non-matured variant C159 [8] | IC50 (read off the curve), inhibition of Stat3 phosphorylation in DB cells by MB23-PEG pre-incubated with 35 pM hIL23 [9] |
| --- | --- | --- | --- | --- | --- | --- | --- | --- | --- | --- | --- | --- | --- | --- |
| MB23 (designed binder, 3 for clone 59 (conflict); also called non-PEGylated MB23 Alphabody) MSIEQIQKEITTIQEVIAAIQKYIYTMTGGSGGSGGMSIEEIQKQIAAIQCQIAAIQKQIYAMTGSGGGGSGMSIEEIQKQIAAIQEQIVAIYKQIMAMAS | 0.07 nM | 0.16 nM | 0.17 nM | 0.15 nM | 0.00021 s⁻¹ | 1.5e+06 M⁻¹ s⁻¹ |  |  |  |  |  |  |  |  |
| MA14 (designed binder) MSIEQIQTEIASIQEVIAGIQKYIYSMTGGSGGSGGMSIEEIQKQIAAIQCQIAAIQKQIYAMTGSGGGGSGMSIEEIQKQIAAIQNQIVAIYKQIMAMGG | 1.5 nM |  | 1.8 nM | 2.5 nM | 0.0005 s⁻¹ | 200000 M⁻¹ s⁻¹ | 11 nM |  |  |  |  |  |  |  |
| MA23 (designed binder) MSIQQIQKEIANIQEVIAAIQKWIYLMTGGSGGSGGMSIEEIQKQIAAIQCQIAAIQKQIYAMTGSGGGGSGMSIEEIQKQIAAIQEQIVAIYKQIMAMPS | 0.7 nM |  | 0.29 nM | 0.7 nM | 0.00032 s⁻¹ | 450000 M⁻¹ s⁻¹ | 10 nM |  |  |  |  |  |  |  |
| MB38 (designed binder) MSIQEIQKEIKQIQEVIAGIQKYIYGMTGGSGGSGGMSIEEIQKQIAAIQCQIAAIQKQIYAMTGSGGGGSGMSIEEIQKQIAAIQNQILAIYKQIMAMPQ | 0.18 nM |  | 0.2 nM | 0.21 nM | 0.00022 s⁻¹ | 1e+06 M⁻¹ s⁻¹ |  | 1.01 nM |  |  |  |  |  |  |
| MB76 (designed binder) MSIQQIQKEITQIQEVIAAIQKYIYRMTGGSGGSDGMSIEEIQKQIAAIQCQIAAIQKQIYAMTGSGGGGSGMSIEEIQKQIAAIQGQILAIYKQIMAMSL | 0.16 nM |  | 1.83 nM | 2.3 nM | 0.00056 s⁻¹ | 250000 M⁻¹ s⁻¹ | 1.7 nM |  |  |  |  |  |  |  |
| MB64 (designed binder) MSIQQIQKEITQIQAVIAGIQKYIYRMTGGSGGSGGGGSGGSGGMSIEEIQKQIAAIQCQIAAIQKQIYAMTGSGGGGSGMSIEEIQKQIAAIQGQIVAIYKQIMAMAT | 0.09 nM | 0.46 nM | 0.21 nM | 0.3 nM | 0.00033 s⁻¹ | 1.1e+06 M⁻¹ s⁻¹ |  |  | 0.18 nM |  |  |  |  |  |
| MA9 (designed binder) MSIQQIQKEITTIQAVIAAIQKWIYTMTGGSGGSGGGGSGGSGGMSIEEIQKQIAAIQCQIAAIQKQIYAMTGSGGGGSGMSIEEIQKQIAAIQGQIIAIYKQIMAMKD | 0.2 nM | 0.24 nM | 0.17 nM | 0.25 nM | 0.00035 s⁻¹ | 1.4e+06 M⁻¹ s⁻¹ |  | 0.46 nM |  |  |  |  |  |  |
| MA15 (designed binder) MSIQEIQKEIANIQAVIAGIQKYIYTMTGGSGGSGGGGSGGSGGMSIEEIQKQIAAIQCQIAAIQKQIYAMTGSGGGGSGMSIEEIQKQITAIQAQIIAIYKQIMAMPR | 0.12 nM | 0.29 nM | 0.31 nM | 0.09 nM | 7.2e-05 s⁻¹ | 800000 M⁻¹ s⁻¹ |  | 0.48 nM |  |  |  |  |  |  |
| MAcons (designed binder, also called polypeptide 15) single chain Alphabody: MSIQQIQKEIAQIQEVIAAIQKWIYSMTGGSGGSGGGGSGGSGGMSIEEIQKQIAAIQCQIAAIQKQIYAMTGSGGGGSGMSIEEIQKQIAAIQDQIVAIYKQIMAMSG |  |  | 0.23 nM | 0.13 nM | 0.00032 s⁻¹ | 2.5e+06 M⁻¹ s⁻¹ | 4.1 nM |  |  |  |  |  |  |  |
| MB74 (designed binder) MSIQQIQKEIATIQEVIAGIQKYIYRMTGGSGGSGGGGSGGSGGMSIEEIQKQIAAIQCQIAAIQKQIYAMTGSGGGGSGMSIEEIQKQIAAIQGQILAIYKQIMAMAI | 0.47 nM |  | 0.35 nM | 0.25 nM | 0.00016 s⁻¹ | 650000 M⁻¹ s⁻¹ | 0.9 nM |  |  |  |  |  |  |  |
| Cl59 (designed binder, Non-matured Alphabody from the AC11 library, tested as soluble recombinant protein; also called Clone 59; C159) MSIEEIQKQIASIQEVIAGIQKWIYMMTGGSGGSGGMSIEEIQKQIAAIQKQIAAIQKQIYAMTGGSGGGGSGMSIEEIQKQITAIKEQIIAIYKQIMAMTP | 3 nM |  |  |  | 0.0007 s⁻¹ | 100000 M⁻¹ s⁻¹ |  | 68.8 nM |  | 3.8 nM | 7 nM |  |  |  |
| 59m_C2eQ (designed binder, also called design variant; polypeptide 19) single chain Alphabody: MSIQQIQKEIAQIQEVIAGIQKWIYMMTGGSGGSGGGGSGGSGGMSIEEIQKQIAAIQCQIAAIQKQIYAMTGSGGGGSGGSGGGGSGMSIEEIQKQITAIQEQIIAIYKQIMAMTP |  |  | 0.93 nM | 3.9 nM | 0.00043 s⁻¹ | 110000 M⁻¹ s⁻¹ | 1.9 nM |  |  |  |  |  |  |  |
| 59m_A3cA_A4cS_C2eQ (designed binder, also called design variant; polypeptide 20) single chain Alphabody: MSIQQIQKEIAQIQEVIAAIQKWIYSMTGGSGGSGGGGSGGSGGMSIEEIQKQIAAIQCQIAAIQKQIYAMTGSGGGGSGGSGGGGSGMSIEEIQKQITAIQEQIIAIYKQIMAMTP |  |  | 0.39 nM | 0.75 nM | 0.00026 s⁻¹ | 350000 M⁻¹ s⁻¹ | 0.7 nM |  |  |  |  |  |  |  |
| Cl59m (designed binder, Rationally designed (in silico matured) variant of Cl59; also called C159m) MSIQQIQKEIAQIQEVIAGIQKWIYMMTGGSGGGSGGGSGGGSGMSIEEIQKQIAAIQKQIAAIQKQIYAMTGGSGGGSGGGSGGGSGMSIEEIQKQITAIKEQIIAIYKQIMAMTP |  | 1.73 nM |  |  |  |  |  |  | 21.7 nM |  |  | 0.3 nM |  |  |
| MB9 (designed binder) MSIQQIQKEITNIQEVIAAIQKWIYTMTGGSGGSGGMSIEEIQKQIAAIQCQIAAIQKQIYAMTGSGGGGSGGSGGGGSGMSIEEIQKQIAAIQNQILAIYKQIMAMGS | 0.2 nM | 0.7 nM | 0.27 nM | 0.13 nM | 0.00025 s⁻¹ | 1.9e+06 M⁻¹ s⁻¹ |  |  |  |  |  |  |  |  |
| MA5 (designed binder) MSIKQIQKEIAQIQEVIAAIQKWIYRMTGGSGGSGGMSIEEIQKQIAAIQCQIAAIQKQIYAMTGSGGGGSGGSGGGGSGMSIEEIQKQIAAIQDQIVAIYKQIMAMSS | 0.2 nM | 0.45 nM | 0.1 nM | 0.03 nM | 0.00016 s⁻¹ | 4.5e+06 M⁻¹ s⁻¹ |  | 1.15 nM |  |  |  |  | 38 fold |  |
| MB43 (designed binder) MSIEEIQKEIKNIQEVIAAIQKYIYTMTGGSGGSGGMSIEEIQKQIAAIQCQIAAIQKQIYAMTGSGGGGSGGSGGGGSGMSIEEIPKQIAAIQDQIIAIYKQIMAMTR | 0.18 nM |  | 0.2 nM | 0.11 nM | 0.00014 s⁻¹ | 1.3e+06 M⁻¹ s⁻¹ |  |  |  |  |  |  |  |  |
| MB67 (designed binder) MSIQKIQKEITNIQEVIAAIQKYIYTMTGGSGGSGGMSIEEIQKQIAAIQCQIAAIQKQIYAMTGSGGGGSGGSGGGGSGMSIEEIQKQIAAIQRQILAIYKQIMAMST | 0.21 nM |  | 0.25 nM | 0.14 nM | 0.00022 s⁻¹ | 1.6e+06 M⁻¹ s⁻¹ |  |  |  |  |  |  |  |  |
| MB23-PEG (designed binder, 40 kDa activated maleimide PEG conjugated to the single free thiol group (Cys) of MB23) MSIEQIQKEITTIQEVIAAIQKYIYTMTGGSGGSGGMSIEEIQKQIAAIQCQIAAIQKQIYAMTGSGGGGSGMSIEEIQKQIAAIQEQIVAIYKQIMAMAS |  |  |  |  |  |  |  |  |  |  |  |  |  | ~1 nM |
